Read-outs that look alike come from different tables or passages of the source. Marks after values point to notes of the source that are not given here. Peptide text beside a SMILES is read from it. * marks the point of attachment. DOTA = O=C(O)CN1CCN(CC(=O)O)CCN(CC(=O)*)CCN(CC(=O)O)CC1
Test: Biodistribution experiments in mice with pretreatment of alendronate (20 mg/kg)
Type: in vivo, ddY mice
Details: for Radioactivity in Bone (Femur): Bone (complete left femur); for Radioactivity in Stomach: Stomach (footnote b)
Description: Experiments with animals were conducted in strict accordance with the Guidelines for the Care and Use of Laboratory Animals of Kanazawa University. The animal experimental protocols used were approved by the Committee on Animal Experimentation of Kanazawa University (Permit Number: AP-132633). Biodistribution experiments were performed after an intravenous administration of each diluted tracer solution (37 kBq/100 µL) to 6-week-old male ddY mice (27–32 g, Japan SLC, Inc., Hamamatsu, Japan). To investigate the effect of an excess amount of bisphosphonate on biodistribution, alendronate (20 mg/kg) was intravenously administered to mice 1 minute before the intravenous injection of ^67Ga-DOTA-(Asp)14 or ^67Ga-DOTA-Bn-SCN-HBP. Four to six mice each were sacrificed by decapitation at 10, 60, and 180 minutes post-injection. Tissues of interest were removed and weighed. Complete left femurs were isolated as representative bone samples, radioactivity was determined using an auto well gamma counter, and counts were corrected for background radiation and physical decay during counting.

[1] = 10 min after i.v. administration, alendronate 20 mg/kg i.v. 1 minute before, male ddY mice, mean (SD) for five or six animals
[2] = 60 min (1 h) after i.v. administration, alendronate 20 mg/kg i.v. 1 minute before, male ddY mice, mean (SD) for five or six animals
[3] = 180 min (3 h) after i.v. administration, alendronate 20 mg/kg i.v. 1 minute before, male ddY mice, mean (SD) for five or six animals

For `O=C(O)C[C@H](NC(=O)[C@H](CC(=O)O)NC(=O)[C@H](CC(=O)O)NC(=O)[C@H](CC(=O)O)NC(=O)[C@H](CC(=O)O)NC(=O)[C@H](CC(=O)O)NC(=O)[C@H](CC(=O)O)NC(=O)[C@H](CC(=O)O)NC(=O)[C@H](CC(=O)O)NC(=O)[C@H](CC(=O)O)NC(=O)[C@H](CC(=O)O)NC(=O)[C@H](CC(=O)O)NC(=O)[C@H](CC(=O)O)NC(=O)[C@H](CC(=O)O)NC(=O)CN1CCN(CC(=O)O)CCN(CC(=O)O)CCN(CC(=O)O)CC1)C(=O)O` [67Ga-DOTA-(Asp)14, metal not drawn] ({DOTA}-DDDDDDDDDDDDDD-OH), the “F/B ratio (Femur:blood ratio)” value [1] was 4.50 (0.63) ^**, the “F/B ratio (Femur:blood ratio)” value [2] was 52.96 (17.28) ^** and the “F/B ratio (Femur:blood ratio)” value [3] was 229.73 (67.08) ^**. For the same compound, the “Radioactivity in Blood” value (Blood, 60 min (1 h) after i.v. administration, alendronate 20 mg/kg i.v. 1 minute before, male ddY mice, mean (SD) for five or six animals) was 0.23 (0.05) ^** % injected dose, the “Radioactivity in Blood” value (Blood, 180 min (3 h) after i.v. administration, alendronate 20 mg/kg i.v. 1 minute before, male ddY mice, mean (SD) for five or six animals) was 0.06 (0.02) ^** % injected dose and the “Radioactivity in Bone (Femur)” value [1] was 8.59 (0.55) ^** % injected dose. The “Radioactivity in Bone (Femur)” value [2] was 11.81 (1.95) % injected dose, the “Radioactivity in Bone (Femur)” value [3] was 12.88 (2.30) % injected dose and the “Radioactivity in Brain” value [1] was 0.05 (0.01) % injected dose. The “Radioactivity in Brain” value [2] was 0.02 (0.00) ^* % injected dose, the “Radioactivity in Brain” value [3] was 0.01 (0.00) % injected dose and the “Radioactivity in Heart” value (Heart, 60 min (1 h) after i.v. administration, alendronate 20 mg/kg i.v. 1 minute before, male ddY mice, mean (SD) for five or six animals) was 0.24 (0.08) ^** % injected dose. The “Radioactivity in Heart” value (Heart, 180 min (3 h) after i.v. administration, alendronate 20 mg/kg i.v. 1 minute before, male ddY mice, mean (SD) for five or six animals) was 0.15 (0.07) ^** % injected dose, the “Radioactivity in Kidney” value (Kidney, 60 min (1 h) after i.v. administration, alendronate 20 mg/kg i.v. 1 minute before, male ddY mice, mean (SD) for five or six animals) was 3.28 (0.82) ^** % injected dose and the “Radioactivity in Kidney” value (Kidney, 180 min (3 h) after i.v. administration, alendronate 20 mg/kg i.v. 1 minute before, male ddY mice, mean (SD) for five or six animals) was 3.34 (0.92) ^** % injected dose. The “Radioactivity in Large-intestine” value [1] was 0.40 (0.08) ^* % injected dose, the “Radioactivity in Large-intestine” value [2] was 0.08 (0.01) ^** % injected dose and the “Radioactivity in Large-intestine” value [3] was 0.33 (0.07) ^** % injected dose. For the same compound, the “Radioactivity in Liver” value (Liver, 60 min (1 h) after i.v. administration, alendronate 20 mg/kg i.v. 1 minute before, male ddY mice, mean (SD) for five or six animals) was 1.39 (0.29) ^** % injected dose, the “Radioactivity in Liver” value (Liver, 180 min (3 h) after i.v. administration, alendronate 20 mg/kg i.v. 1 minute before, male ddY mice, mean (SD) for five or six animals) was 1.27 (0.72) ^** % injected dose and the “Radioactivity in Lung” value (Lung, 180 min (3 h) after i.v. administration, alendronate 20 mg/kg i.v. 1 minute before, male ddY mice, mean (SD) for five or six animals) was 2.49 (1.78) ^* % injected dose. For the same compound, the “Radioactivity in Muscle” value (Muscle, 60 min (1 h) after i.v. administration, alendronate 20 mg/kg i.v. 1 minute before, male ddY mice, mean (SD) for five or six animals) was 0.11 (0.07) % injected dose, the “Radioactivity in Muscle” value (Muscle, 180 min (3 h) after i.v. administration, alendronate 20 mg/kg i.v. 1 minute before, male ddY mice, mean (SD) for five or six animals) was 0.05 (0.02) % injected dose and the “Radioactivity in Pancreas” value [1] was 0.72 (0.12) ^** % injected dose. The “Radioactivity in Pancreas” value [2] was 0.15 (0.02) ^** % injected dose, the “Radioactivity in Pancreas” value [3] was 0.12 (0.07) ^* % injected dose and the “Radioactivity in Small-intestine” value [1] was 0.53 (0.09) ^* % injected dose. The “Radioactivity in Small-intestine” value [2] was 0.22 (0.05) ^** % injected dose, the “Radioactivity in Small-intestine” value [3] was 0.29 (0.12) ^** % injected dose and the “Radioactivity in Spleen” value (Spleen, 60 min (1 h) after i.v. administration, alendronate 20 mg/kg i.v. 1 minute before, male ddY mice, mean (SD) for five or six animals) was 1.03 (0.35) ^** % injected dose. The “Radioactivity in Spleen” value (Spleen, 180 min (3 h) after i.v. administration, alendronate 20 mg/kg i.v. 1 minute before, male ddY mice, mean (SD) for five or six animals) was 0.89 (0.59) ^* % injected dose, the “Radioactivity in Stomach” value [1] was 0.36 (0.09) ^* % injected dose and the “Radioactivity in Stomach” value [2] was 0.15 (0.12) % injected dose. For the same compound, the “Radioactivity in Stomach” value [3] was 0.11 (0.04) ^** % injected dose, the “effect of alendronate pretreatment on accumulation in bone (in words)” value (alendronate 20 mg/kg i.v. 1 minute before tracer, mice) was “comparatively little effect” and the tissue uptake dose at 10 min (male, ddY, mouse, in vivo, iv, total radioactivity, Blood, 10 min after i.v. administration, alendronate 20 mg/kg i.v. 1 minute before, male ddY mice, mean (SD) for five or six animals, read-out: Radioactivity in Blood) was 1.94 %ID. It also gave a tissue uptake dose at 10 min (male, ddY, mouse, in vivo, iv, total radioactivity, Heart, 10 min after i.v. administration, alendronate 20 mg/kg i.v. 1 minute before, male ddY mice, mean (SD) for five or six animals, read-out: Radioactivity in Heart) of 0.88 %ID, a tissue uptake dose at 10 min (male, ddY, mouse, in vivo, iv, total radioactivity, Kidney, 10 min after i.v. administration, alendronate 20 mg/kg i.v. 1 minute before, male ddY mice, mean (SD) for five or six animals, read-out: Radioactivity in Kidney) of 16.7 %ID and a tissue uptake dose at 10 min (male, ddY, mouse, in vivo, iv, total radioactivity, Liver, 10 min after i.v. administration, alendronate 20 mg/kg i.v. 1 minute before, male ddY mice, mean (SD) for five or six animals, read-out: Radioactivity in Liver) of 2.2 %ID. The tissue uptake dose at 10 min (male, ddY, mouse, in vivo, iv, total radioactivity, Lung, 10 min after i.v. administration, alendronate 20 mg/kg i.v. 1 minute before, male ddY mice, mean (SD) for five or six animals, read-out: Radioactivity in Lung) was 5.86 %ID, the tissue uptake dose at 1 h (male, ddY, mouse, in vivo, iv, total radioactivity, Lung, 60 min (1 h) after i.v. administration, alendronate 20 mg/kg i.v. 1 minute before, male ddY mice, mean (SD) for five or six animals) was 4.07 %ID and the tissue uptake dose at 10 min (male, ddY, mouse, in vivo, iv, total radioactivity, Muscle, 10 min after i.v. administration, alendronate 20 mg/kg i.v. 1 minute before, male ddY mice, mean (SD) for five or six animals, read-out: Radioactivity in Muscle) was 0.53 %ID. It also gave a tissue uptake dose at 10 min (male, ddY, mouse, in vivo, iv, total radioactivity, Spleen, 10 min after i.v. administration, alendronate 20 mg/kg i.v. 1 minute before, male ddY mice, mean (SD) for five or six animals, read-out: Radioactivity in Spleen) of 1.86 %ID.

From article PMC3877283, “Development of Novel Radiogallium-Labeled Bone Imaging Agents Using Oligo-Aspartic Acid Peptides as Carriers” (PLoS ONE, 2013)
